From patent US20240141061A1, “NOVEL ANTIBODY AGAINST CD55 AND USE THEREOF” (SG MEDICAL INC, priority 2021, published 2024) come the findings set out here.

To fix the notation:
B1: 10H(M): EP-10H backbone with H100A site replaced with M, VH SEQ ID NO 29, EP-10H light chain (antibody, V domains shown)
VH: EVQLAESGGGLVQPGGSLRLSCAASGFTFSDRGMAWVRQAPGKGLEWVSGISSSGRYTYYAPAVKGRATISRDNSKNTLYLQMNSLRAEDTAVYYCAKNAMAGGWHAAYIDAWGQGTTVTVSS
VL: SYELTQPPSVSVSPGQTASITCSGGGGSYGWYQQKPGQSPVTVIYWNDKRPSGIPERFSGSKSGNTATLTISGTQAMDEADYYCGGWDSSTYAIFGGGTKLTVL
B2: EP-9B: anti-CD55 antibody screened from G4-1H random mutation library, VL SEQ ID NO 4, VH SEQ ID NO 21 (antibody, V domains shown)
VH: EVQLVESGGGLVQPGGSLRLSCAASGFTFSDRGMVWVRQSPGKGLEWVSGISSSGRYTYYAPAVKGRATISRDNSKNTLYLQMNNLRAEDTAVYYCAKNAVAGGWHAAYIDAWGQGTTVTVSS
VL: SYELTQPPSVSVSPGQTASITCSGGGGSYGWYQQKPGQSPVTVIYWNDKRPSGIPERFSGSKSGNTATLTISGTQAMDEADYYCGGWDSSTYAIFGGGTKLTVL
modifications: EP-9B_VH; G4-1H_VL
B3: EP-1F: anti-CD55 antibody screened from G4-1H random mutation library, VL SEQ ID NO 4, VH SEQ ID NO 20 (antibody, V domains shown)
VH: EVQLAESGGGLVQPGGSLRLSCAASGFTFSDRGMAWVRQAPGKGLEWVSGISSSGRYTYYAPAVKGRATISRDNSKNTLYLQMNSLRAEDTAVYYCAKNAVAGGWHAAYIDAWGQGTTVTVSS
VL: SYELTQPPSVSVSPGQTASITCSGGGGSYGWYQQKPGQSPVTVIYWNDKRPSGIPERFSGSKSGNTATLTISGTQAMDEADYYCGGWDSSTYAIFGGGTKLTVL
modifications: EP-1F_VH; G4-1H_VL
B4: 10H(F): EP-10H backbone with H100A site replaced with F, VH SEQ ID NO 28, EP-10H light chain (antibody, V domains shown)
VH: EVQLAESGGGLVQPGGSLRLSCAASGFTFSDRGMAWVRQAPGKGLEWVSGISSSGRYTYYAPAVKGRATISRDNSKNTLYLQMNSLRAEDTAVYYCAKNAFAGGWHAAYIDAWGQGTTVTVSS
VL: SYELTQPPSVSVSPGQTASITCSGGGGSYGWYQQKPGQSPVTVIYWNDKRPSGIPERFSGSKSGNTATLTISGTQAMDEADYYCGGWDSSTYAIFGGGTKLTVL
B5: 10H(L): EP-10H backbone with H100A site replaced with L, VH SEQ ID NO 27, EP-10H light chain (antibody, V domains shown)
VH: EVQLAESGGGLVQPGGSLRLSCAASGFTFSDRGMAWVRQAPGKGLEWVSGISSSGRYTYYAPAVKGRATISRDNSKNTLYLQMNSLRAEDTAVYYCAKNALAGGWHAAYIDAWGQGTTVTVSS
VL: SYELTQPPSVSVSPGQTASITCSGGGGSYGWYQQKPGQSPVTVIYWNDKRPSGIPERFSGSKSGNTATLTISGTQAMDEADYYCGGWDSSTYAIFGGGTKLTVL
B6: G4-1H: humanized 4-1H anti-CD55 antibody, VL SEQ ID NO 4, VH SEQ ID NO 5 (antibody, V domains shown)
VH: EVQLVESGGGLVQPGGSLRLSCAASGFTFSDRGMAWVRQAPGKGLEWVSGISSSGRYTYYAPAVKGRATISRDNSKNTLYLQMNSLRAEDTAVYYCAKNAGAGGWHAAYIDAWGQGTTVTVSS
VL: SYELTQPPSVSVSPGQTASITCSGGGGSYGWYQQKPGQSPVTVIYWNDKRPSGIPERFSGSKSGNTATLTISGTQAMDEADYYCGGWDSSTYAIFGGGTKLTVL
modifications: G4-1H_VH; G4-1H_VL
B7: 3R-2-1H: anti-CD55 antibody screened from G4-1H random mutation library, VL SEQ ID NO 4, VH SEQ ID NO 22 (antibody, V domains shown)
VH: EVQLVESGGGLVQPGGSLRLSCVARGFTFSDRGMAWVRQAPGKGLEWVSGISSSGRYTYYAPAVKGRTTISRDNSKNTLYLQMNSLRAEDTAVYYCAKNAVAGGWHAAYIDAWGQGTTVTVSS
VL: SYELTQPPSVSVSPGQTASITCSGGGGSYGWYQQKPGQSPVTVIYWNDKRPSGIPERFSGSKSGNTATLTISGTQAMDEADYYCGGWDSSTYAIFGGGTKLTVL
modifications: 3R-2-1H_VH; G4-1H_VL
B8: EP-1E: anti-CD55 antibody screened from G4-1H random mutation library, VL SEQ ID NO 18, VH SEQ ID NO 19 (antibody, V domains shown)
VH: EVQLVESGGGLVQPGGSLRLSCAASGFTFSDRGMAWVRQAPGKGLEWVSGISSSGRYTYYAPAVKGRATISRDNSKNTLYLQMNSLRAEDTAVYYCAKNAVAGGWHAAYIDAWGQGTTVTVSS
VL: SYELTQPPSVSVSPGQTASITCSGGGGSYGWFQQKPGQSPVTVIYWNNKRPSGIPERFSGSKSGNTATLTISGTQAMDEADYYCGGWDSSTYAIFGGGTKLTVL
modifications: EP-1E_VH; EP-1E_VL
B9: 10H(A) (antibody, V domains shown)
VH: EVQLVESGGGLVQPGGSLRLSCAASGFTFSDRGMAWVRQAPGKGLEWVSGISSSGRYTYYAPAVKGRATISRDNSKNTLYLQMNSLRAEDTAVYYCAKNAAAGGWHAAYIDAWGQGTTVTVSS
VL: SYELTQPPSVSVSPGQTASITCSGGGGSYGWYQQKPGQSPVTVIYWNDKRPSGIPERFSGSKSGNTATLTISGTQAMDEADYYCGGWDSSTYAIFGGGTKLTVL
B10: 10H(I) (antibody, V domains shown)
VH: EVQLVESGGGLVQPGGSLRLSCAASGFTFSDRGMAWVRQAPGKGLEWVSGISSSGRYTYYAPAVKGRATISRDNSKNTLYLQMNSLRAEDTAVYYCAKNAIAGGWHAAYIDAWGQGTTVTVSS
VL: SYELTQPPSVSVSPGQTASITCSGGGGSYGWYQQKPGQSPVTVIYWNDKRPSGIPERFSGSKSGNTATLTISGTQAMDEADYYCGGWDSSTYAIFGGGTKLTVL
B11: 3R-2-1H (antibody, V domains shown)
VH: EVQLVESGGGLVQPGGSLRLSCVARGFTFSDRGMAWVRQAPGKGLEWVSGISSSGRYTYYAPAVKGRTTISRDNSKNTLYLQMNSLRAEDTAVYYCAKNAVAGGWHAAYIDAWGQGTTVTVSS
VL: SYELTQPPSVSVSPGQTASITCSGGGGSYGWYQQKPGQSPVTVIYWNDKRPSGIPERFSGSKSGNTATLTISGTQAMDEADYYCGGWDSSTYAIFGGGTKLTVL
notes: Tested as full-length IgG
B12: EP-1F (antibody, V domains shown)
VH: EVQLAESGGGLVQPGGSLRLSCAASGFTFSDRGMAWVRQAPGKGLEWVSGISSSGRYTYYAPAVKGRATISRDNSKNTLYLQMNSLRAEDTAVYYCAKNAVAGGWHAAYIDAWGQGTTVTVSS
VL: SYELTQPPSVSVSPGQTASITCSGGGGSYGWYQQKPGQSPVTVIYWNDKRPSGIPERFSGSKSGNTATLTISGTQAMDEADYYCGGWDSSTYAIFGGGTKLTVL
notes: Tested as full-length IgG
B13: EP-9B (antibody, V domains shown)
VH: EVQLVESGGGLVQPGGSLRLSCAASGFTFSDRGMVWVRQSPGKGLEWVSGISSSGRYTYYAPAVKGRATISRDNSKNTLYLQMNNLRAEDTAVYYCAKNAVAGGWHAAYIDAWGQGTTVTVSS
VL: SYELTQPPSVSVSPGQTASITCSGGGGSYGWYQQKPGQSPVTVIYWNDKRPSGIPERFSGSKSGNTATLTISGTQAMDEADYYCGGWDSSTYAIFGGGTKLTVL
notes: Tested as full-length IgG
B14: EP-1E (antibody, V domains shown)
VH: EVQLVESGGGLVQPGGSLRLSCAASGFTFSDRGMAWVRQAPGKGLEWVSGISSSGRYTYYAPAVKGRATISRDNSKNTLYLQMNSLRAEDTAVYYCAKNAVAGGWHAAYIDAWGQGTTVTVSS
VL: SYELTQPPSVSVSPGQTASITCSGGGGSYGWFQQKPGQSPVTVIYWNNKRPSGIPERFSGSKSGNTATLTISGTQAMDEADYYCGGWDSSTYAIFGGGTKLTVL
notes: Tested as full-length IgG

The first test concerns the target T1, recombinant human CD55 (Homo sapiens, UniProt P08174).
T1 construct: purchased R&D Systems 2009-CD/CF
T1 sequence (P08174 35-353): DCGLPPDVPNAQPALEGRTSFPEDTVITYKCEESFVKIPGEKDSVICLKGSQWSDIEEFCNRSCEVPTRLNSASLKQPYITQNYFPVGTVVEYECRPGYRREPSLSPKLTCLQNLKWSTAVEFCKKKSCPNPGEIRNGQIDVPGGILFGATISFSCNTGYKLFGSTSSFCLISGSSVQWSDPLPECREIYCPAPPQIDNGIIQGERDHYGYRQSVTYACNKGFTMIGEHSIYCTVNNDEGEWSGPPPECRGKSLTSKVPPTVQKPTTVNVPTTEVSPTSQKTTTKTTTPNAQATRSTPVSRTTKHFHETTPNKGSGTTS
In words: Indirect ELISA, affinity for CD55. The class given is binding. Conditions: full-length antibody 0.0001-10 nM on CD55 coated at 1 μg/mL. On the procedure: The binding ability of the G4-1H monoclonal antibody prepared in Example 2 for CD55 was investigated by indirect ELISA. For the indirect ELISA, recombinant human CD55 (R&D Systems, USA) diluted to 1 μg/mL in 50 μL of PBS was added to a 96-well immunoplate (Corning, USA) and then adsorbed by keeping at 4° C. overnight. After incubation for 1 hour at room temperature in a buffer containing 3% bovine serum albumin (Millipore, USA), followed by washing with a buffer containing 0.5% Tween 20 (Amresco, USA) three times, 50 μL of the serially diluted antibody (0.0001, 0.0003, 0.001, 0.003, 0.01, 0.03, 0.1, 0.3, 1, 3 and 10 nM) was treated per well. After incubation at room temperature for 2 hours for antibody-antigen binding, the antibody-antigen complex was washed three times with a buffer containing 0.5% Tween 20 (Amresco, USA). After treating with 50 μL of anti-human immunoglobulin Fc-HRP antibody (Jackson Immunoresearch, USA) diluted to 1:3,000 per well, followed by incubation at room temperature for 1 hour and washing three times with a buffer containing 0.5% Tween 20 (Amresco, USA), color development was conducted for 10 minutes by adding 50 μL of 3,3′,5,5′-tetramethylbenzidine (TMB) (ThermoFisher Scientific, USA).
The affinity of the antibodies screened in Example 6 for CD55 was investigated by indirect ELISA. The indirect ELISA was conducted in the same manner as in Example 3.
The affinity of the antibodies prepared in Example 8 for CD55 was investigated by indirect ELISA. The indirect ELISA was conducted in the same manner as in Example 3. […]
On the technique in general: In an ELISA, binding on a coated surface is turned into a signal by an enzyme label.
As to B1, the “affinity for CD55 (indirect ELISA, absorbance at 450 nm)” value (“affinity for CD55” below) is given as “lower affinity than EP-10H”. For B2, the “affinity for CD55” value was “affinity higher than that of 4-1H but lower than those of other antibodies”. As for B3, the “affinity for CD55” value is recorded as “comparable affinity”. In the case of B4, the “affinity for CD55” value is “lower affinity than EP-10H”.

For B5, the “affinity for CD55” value was “lower affinity than EP-10H”. For the molecule B6, the “affinity for CD55” value is on record as “lower affinity for CD55 than 4-1H”.

B7: the “affinity for CD55” value is recorded as “comparable affinity”. Regarding B8, the “affinity for CD55” value is “comparable affinity”. For B9, the “affinity for CD55” value is “lower affinity than EP-10H”. In the case of B10, the “affinity for CD55” value is on record as “lower affinity than EP-10H”.

Another test has as its target T2, recombinant human CD55 (R&D Systems 2009-CD/CF) (human, UniProt P08174 35-353).
T2 construct: Bought recombinant protein coated on ELISA plates; also called decay-accelerating factor; DAF
T2 sequence (looked up): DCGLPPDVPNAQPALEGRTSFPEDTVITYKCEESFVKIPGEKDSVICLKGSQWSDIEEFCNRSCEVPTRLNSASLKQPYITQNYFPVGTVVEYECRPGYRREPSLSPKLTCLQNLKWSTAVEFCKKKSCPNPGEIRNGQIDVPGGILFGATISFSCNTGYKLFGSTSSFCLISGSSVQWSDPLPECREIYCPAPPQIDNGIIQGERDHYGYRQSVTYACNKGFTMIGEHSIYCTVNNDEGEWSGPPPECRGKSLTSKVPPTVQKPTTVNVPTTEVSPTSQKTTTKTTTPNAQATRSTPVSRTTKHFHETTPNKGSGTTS
Kind of test: indirect ELISA, recombinant human CD55 coated.
Settings: not given
Take B11: the binding result was “binds”. On the same count and under the same terms, with B12 the entry was “binds”; with B9, “binds”. Same read-out and setting: with B13 the entry was “binds”; with B14, “binds”; with B10, “binds”.
